Experimental data reported in paper PMC10833452 (Protein & Cell, 2023).

Legend:
[1] = target: T1, SARS-CoV-2 wild-type spike protein ectodomain, prefusion-stabilized trimer (WT-S) (SARS-CoV-2 prototype (MN908947), UniProt P0DTC2, proline substitution at 986 | proline substitution at 987 | GSAS substitution …); assay: SPR; settings: both partners purified
[2] = target: T1, SARS-CoV-2 wild-type spike protein …; assay: cryo-EM structure; settings: both partners purified

B1: 8H12 monoclonal antibody (mouse IgG) (antibody, V domains shown)
VH: EVKLEESGGGLVQPGGSMKLSCAASGFTFSDAWMDWVRQSPEKGLEWVAQIRRKANNHATYYAESVKGRFTISRDDSKSSVYLQMNSLRAEDTGIYYCIRGMTYAMDFWGQGTSVTVSS
VL: DIVMTQFQKFMSTSVGDRVSITCKASQNVRTAVAWYQQKPGQSPKAMIYLASNRHRGVPDRFTGSGCGTDFTLTISNVQCEDLADYFCLQHRNYPLTFGGGTKLEIK
B1: binds [1].

B2: S2X35 recombinant antibody (human IgG constant region) (antibody, V domains shown)
VH: QVQLVQSGAEVKKPGASVKVSCKASGYTFTNYGISWVRQAPGQGLEWMGWISAYKGNTNYAQKLQGRVTMTTDTSTSTAYMELRSLRSDDTAVYYCARPDYQVLGYDFWIGYYGMDVWGQGTTVIVSS
VL: QSVLTQPPSVSGAPGQRVTISCTGSSSNIGAGYDVHWYQQLPGTAPKLLIYGNTNRPSGVPDRFSGSKSGTSASLAITGLQAEDEADYYCQSYDSSLSGSEVVFGGGTKLTVL
B2: binds [1].

B3: S2X35 Fab (Fab, V domains shown)
VH: QVQLVQSGAEVKKPGASVKVSCKASGYTFTNYGISWVRQAPGQGLEWMGWISAYKGNTNYAQKLQGRVTMTTDTSTSTAYMELRSLRSDDTAVYYCARPDYQVLGYDFWIGYYGMDVWGQGTTVIVSS
VL: QSVLTQPPSVSGAPGQRVTISCTGSSSNIGAGYDVHWYQQLPGTAPKLLIYGNTNRPSGVPDRFSGSKSGTSASLAITGLQAEDEADYYCQSYDSSLSGSEVVFGGGTKLTVL
B3: binds [2].

B4: VacW-209 recombinant antibody (human IgG constant region) (antibody, V domains shown)
VH: QVQLVESGGGVVQPGRSLRLSCAASGFTFSSIAMHWVRQAPGKGLEWVAVMSFDGSIKYYGDSVKGRFTISRDNSKSTLYLQMNSLRAEDTAVYYCARGVQGYYDRSGYYNLDYNYGMDVWGQGTTVTVSS
VL: QSVLTQPPSVSGAPGQRVTISCTGSSSNIGAGYDVHWYQQLPGTAPKLLIYGNSNRPSGVPDRFSGSKSGTSASLAITGLQAEDEADYYCQSYDSSLSGWVFGGGTKLTVL
B4: binds [1].

B5: VacW-209 Fab (Fab, V domains shown)
VH: QVQLVESGGGVVQPGRSLRLSCAASGFTFSSIAMHWVRQAPGKGLEWVAVMSFDGSIKYYGDSVKGRFTISRDNSKSTLYLQMNSLRAEDTAVYYCARGVQGYYDRSGYYNLDYNYGMDVWGQGTTVTVSS
VL: QSVLTQPPSVSGAPGQRVTISCTGSSSNIGAGYDVHWYQQLPGTAPKLLIYGNSNRPSGVPDRFSGSKSGTSASLAITGLQAEDEADYYCQSYDSSLSGWVFGGGTKLTVL
B5: binds [2].

B6: S2E12 recombinant antibody (human IgG constant region) (antibody, V domains shown)
VH: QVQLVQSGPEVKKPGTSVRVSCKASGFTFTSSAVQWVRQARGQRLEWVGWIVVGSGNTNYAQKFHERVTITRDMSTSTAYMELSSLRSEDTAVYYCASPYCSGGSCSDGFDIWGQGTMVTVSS
VL: DIVLTQTPGTLSLSPGERATLSCRASQSVSSSYLAWYQQKPGQAPRLLIYGASSRATGIPDRFSGSGSGTDFTLTISRLEPEDFAVYYCQQYVGLTGWTFGQGTKVEIK
B6: binds [1].

B7: S2E12 Fab (Fab, V domains shown)
VH: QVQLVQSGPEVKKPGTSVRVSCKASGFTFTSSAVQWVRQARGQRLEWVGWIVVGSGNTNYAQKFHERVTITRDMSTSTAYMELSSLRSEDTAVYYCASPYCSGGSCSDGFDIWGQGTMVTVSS
VL: DIVLTQTPGTLSLSPGERATLSCRASQSVSSSYLAWYQQKPGQAPRLLIYGASSRATGIPDRFSGSGSGTDFTLTISRLEPEDFAVYYCQQYVGLTGWTFGQGTKVEIK
B7: binds [2].
